In publication PMC6050298, “Highly active enzymes by automated combinatorial backbone assembly and sequence design” (Nature Communications, 2018):

B1: Xylanase from Geobacillus stearothermophilus (PDB ID: 4PUD) (Geobacillus stearothermophilus) (protein)
chain: KPHISALNAPQLDQRYKNEFTIGAAVEPYQLQNEKDVQMLKRHFNSIVAENVMKPISIQPEEGKFNFEQADRIVKFAKANGMDIRFHTLVWHSQVPQWFFLDKEGKPMVNETDPVKREQNKQLLLKRLETHIKTIVERYKDDIKYWDVVNEVVGDDGKLRNSPWYQIAGIDYIKVAFQAARKYGGDNIKLYMNDYNTEVEPKRTALYNLVKQLKEEGVPIDGIGHQSHIQIGWPSEAEIEKTINMFAALGLDNQITELDVSMYGWPPRAYPTYDAIPKQKFLDQAARYDRLFKLYEKLSDKISNVTFWGIADNHTWLDSRADVYYDANGNVVVDPNAPYAKVEKGKGKDAPFVFGPDYKVKPAYWAIIDHK
notes: synthetic codon-optimised gene, N-terminal His6-MBP fusion kept in assay, E. coli BL21 DE3; monomer; 4PUD names the template structure
B2: xyl3.1 (synthetic construct) (protein)
chain: TIGSEFKPHISALNAPSLAQRYKDYFYIGAAVEPYQTTKEKDAKMLQRHFNMIVAENAMKPAALEPTEGNFQWADADRIVQFAKENGMELRFHTLVWHNQTPDWFFLDREGKPMVEETDPQKREENRELLLQRLENHIRAVVLRYKDDIKNWDVVNEVVEPNDPGGMRNSPWYQITGTEYIEVAFRAAREAGGEDIKLYMNDYNTEQEPKREYIYRLIKKLLEKGVPIDGVGHQAHVTIDRPPVDEIKKTIQRFADLGLDNQITELDVSLYGWPPRPAYPTYDAIPEERFQAQADRYRQLFELFEELKDHISAVTFWGIADNHTWLDDRAREYNDGVGKDAPFVFDPNYRVKPAYWAIINHK
notes: computational design (105 mutations to nearest natural protein), N-terminal His6-MBP fusion kept in assay

How the values were obtained:
purified protein [1] = substrate: O=[N+]([O-])c1ccc(O[C@@H]2OC[C@@H](O[C@@H]3OC[C@@H](O)[C@H](O)[C@H]3O)[C@H](O)[C@H]2O)cc1; assay: purified protein; type: biochemical, Geobacillus stearothermophilus; settings: 37 °C, 50 mM Tris pH 6.5, 150 mM NaCl, MBP fusion
purified protein [2] = substrate: O=[N+]([O-])c1ccc(O[C@@H]2OC[C@@H](O[C@@H]3OC[C@@H](O)[C@H](O)[C@H]3O)[C@H](O)[C@H]2O)cc1; assay: purified protein; type: biochemical, synthetic construct; settings: 37 °C, 50 mM Tris pH 6.5, 150 mM NaCl, MBP fusion

Protein	Km (purified protein [1]) [µM]	kcat (purified protein [1]) [s⁻¹]	Km (purified protein [2]) [µM]	kcat (purified protein [2]) [s⁻¹]
B1	160 ± 20	6.47 ± 0.04	–	–
B2	–	–	1820 ± 600	17 ± 5
